Measurements from patent publication US20160047001A1, “Sept4/ARTS AS A TUMOR SUPPRESSOR IN THE DIAGNOSIS, PROGNOSIS AND TREATMENT OF HEPATIC DISORDERS” (CARMEL-HAIFA UNIVERSITY ECONOMIC CORPORATION LTD., priority 2013, published 2016).
“Also recorded” adds a separate entry of the source.

Experiments:
ARTS mRNA = experiment: RT-PCR of ARTS mRNA after exposure to chromatin-modifying drugs; assay type: cell-based, human; settings: for ARTS mRNA level: HCC cell-lines, individual treatment, AZA 10 μM, TSA 1 μM; for ARTS levels: PH5CH non-malignant hepatocyte cell-line
Experimental: Quantitative reverse transcription polymerase chain reactions (qRT-PCR) incorporating SYBR Green (Applied Biosystems) were carried-out using a Realplex qPCR Mastercycler (Eppendorf; Hauppauge, N.Y.). For semi-quantitative PCR, total RNA was extracted from cell-lines using Trizol reagent (Invitrogen, Carlsbad, Calif.) and in turn, was used to synthesize cDNA using random primers, reagents, and protocol provided in the Superscript 1st strand synthesis kit (Invitrogen). Normalized amounts of cDNA served as template in standard PCR using AmpliTaq DNA polymerase (Applied Biosystems). Immunoblotting was performed as previously described in (7). Cell extracts were prepared from tumor and adjacent non-tumor control tissues that were excised from the liver of sacrificed mice, homogenized by Polytron PT 2100 (Brinkman) in Triton X-100 lysis buffer and clarified by centrifugation. Extracts were normalized for protein concentration by Bradford assay (BioRad) prior to immunoblotting procedures. Signal detection was performed with enhanced chemiluminescence kit (Amersham). The following primary antibodies were used: anti-A6 (gift from Dr. V. Factor NCI/NIH), anti-Flag and anti-β-actin (Sigma); anti-XIAP (Becton Dickinson); anti-cIAP-1 (R&D Systems); anti-β-catenin and anti-Survivin (Cell Signaling), anti-cytokeratin-8 (Fitzgerald Indust. Intl., Concord, Mass.). 5-Aza-2′deoxycytidine (AZA), Trichostatin A (TSA), and cycloheximide (CHX) were purchased from Sigma-Alrich. Tumor-necrosis factor-α, the anti-Fas antibody (Jo-2), and the in vitro methylated genomic Hela DNA were obtained from Peprotech, Pharminogen, and New England Biolabs, respectively. To examine the possibility of epigenetic regulation, chromatin-modifying drugs were tested for their ability to influence ARTS expression. Cells were exposed to DNA-methyltransferase and HDAC inhibitors 5′ aza-cytosine (AZA) and trichostatin A (TSA), respectively.

PHM-1 hepatoblasts = experiment: Growth of PHM-1 hepatoblasts after sub-cutaneous transplantation into host mice; assay type: in vivo; settings: PHM-1 cells carrying the hairpin, sub-cutaneous injection into host mice
Description: FIG. 5D. Growth of PHM-1 hepatoblasts following their sub-cutaneous transplantation into host mice. Values are the mean±standard deviation of four independent experiments. P-values: *P=0.04, **P=0.03, and ***P=0.01.
Details on isolation, culture, retrovirus-mediated gene transfer, and sub-cutaneous transplantation of hepatoblasts can be found in (30). Cell viability was monitored by propidium iodide (PI) nuclear staining and flow cytometric analysis.

ARTS = experiment: Western blot of ARTS knockdown by hairpins in NIH3T3 fibroblasts; assay type: cell-based
Experimental: (§1) miR30-designed shRNAs were subcloned into the pLMP (MSCV-based) retroviral vector as previously described (30). Briefly, individual shRNAs were synthesized as 97 base-pair oligos (Sigma Genosys), PCR-amplified, ligated into pLMP following EcoRI/XhoI-digestion.
Immunoblotting was performed as previously described in (7). Cell extracts were prepared from tumor and adjacent non-tumor control tissues that were excised from the liver of sacrificed mice, homogenized by Polytron PT 2100 (Brinkman) in Triton X-100 lysis buffer and clarified by centrifugation. Extracts were normalized for protein concentration by Bradford assay (BioRad) prior to immunoblotting procedures. Signal detection was performed with enhanced chemiluminescence kit (Amersham). The following primary antibodies were used: anti-A6 (gift from Dr. V. Factor NCI/NIH), anti-Flag and anti-β-actin (Sigma); anti-XIAP (Becton Dickinson); anti-cIAP-1 (R&D Systems); anti-β-catenin and anti-Survivin (Cell Signaling), anti-cytokeratin-8 (Fitzgerald Indust. Intl., Concord, Mass.). 5-Aza-2′deoxycytidine (AZA), Trichostatin A (TSA), and cycloheximide (CHX) were purchased from Sigma-Alrich. Tumor-necrosis factor-α, the anti-Fas antibody (Jo-2), and the in vitro methylated genomic Hela DNA were obtained from Peprotech, Pharminogen, and New England Biolabs, respectively.

Sept4/H5-Flag = experiment: Western blot (anti-Flag) of Sept4/H5-Flag knockdown in NIH3T3 fibroblasts; assay type: cell-based; settings: NIH3T3 fibroblasts stably expressing Sept4/H5-Flag; retroviral shRNA; anti-Flag immunoblot
Experimental: FIG. 5I. A pan-Sept4- and Sept4/H5-specific short-hairpins promote efficient knowndown. […] NIH3T3 fibroblasts stably expressing Flag-epitope tagged Sept4/H5 (Sept4/H5-Flag) were transduced with retroviruses harboring the indicated shRNAs, a non-silencing control, or left un-infected Immunoblotting was performed with anti-Flag antibody to detect Sept4/H5-Flag expression (red arrow).
as §1
Immunoblotting was performed as previously described in (7). Cell extracts were prepared from tumor and adjacent non-tumor control tissues that were excised from the liver of sacrificed mice, homogenized by Polytron PT 2100 (Brinkman) in Triton X-100 lysis buffer and clarified by centrifugation. Extracts were normalized for protein concentration by Bradford assay (BioRad) prior to immunoblotting procedures. Signal detection was performed with enhanced chemiluminescence kit (Amersham). […]

Nc1ncn([C@H]2C[C@H](O)[C@@H](CO)O2)c(=O)n1 [AZA, 5-Aza-2′deoxycytidine]
ARTS mRNA level (ARTS mRNA): upregulation of ARTS mRNA; also recorded: induced ARTS mRNA to levels comparable to those observed in normal hepatocytes
ARTS levels (ARTS mRNA): little appreciable effect

CC(/C=C/C(=O)NO)=C\[C@@H](C)C(=O)c1ccc(N(C)C)cc1 [TSA, Trichostatin A]
ARTS mRNA level (ARTS mRNA): upregulation of ARTS mRNA; also recorded: induced ARTS mRNA to levels comparable to those observed in normal hepatocytes
ARTS levels (ARTS mRNA): little appreciable effect

B1: sh-panSept4: miR30-designed shRNA targeting all Sept4-isoforms, including ARTS (nucleic acid)
chain: TGCTGTTGACAGTGAGCGCAAGCACGCAGTGGATATAGAATAGTGAAGCCACAGATGTATTCTATATCCACTGCGTGCTTATGCCTACTGCCTCGGA
tumor growth (PHM-1 hepatoblasts): promoted tumor growth
ARTS levels (knockdown) (ARTS): capable of reducing ARTS levels
Sept4/H5 knockdown (Sept4/H5-Flag): highly effective Sept4/H45 knockdown

B2: sh-ARTS-2: miR30-designed shRNA specifically targeting ARTS, in pLMP retroviral vector (nucleic acid)
chain: TGCTGTTGACAGTGAGCGAAACAGGCCGAGTAGCACCACATAGTGAAGCCACAGATGTATGTGGTGCTACTCGGCCTGTTCTGCCTACTGCCTCGGA
ARTS levels (knockdown) (ARTS): capable of reducing ARTS levels

B3: sh-ARTS-1: miR30-designed shRNA specifically targeting ARTS, in pLMP retroviral vector (nucleic acid)
chain: TGCTGTTGACAGTGAGCGCAAGGGAACAGGCCGAGTAGCATAGTGAAGCCACAGATGTATGCTACTCGGCCTGTTCCCTTATGCCTACTGCCTCGGA
ARTS levels (knockdown) (ARTS): capable of reducing ARTS levels

B4: sh-ARTS-3: miR30-designed shRNA specifically targeting ARTS, in pLMP retroviral vector (nucleic acid)
chain: TGCTGTTGACAGTGAGCGACGGGTGGTCACTGATTCCTGTTAGTGAAGCCACAGATGTAACAGGAATCAGTGACCACCCGCTGCCTACTGCCTCGGA
ARTS levels (knockdown) (ARTS): capable of reducing ARTS levels
